Our source for the protein stability index values is the supplement of paper PMC10567573.

± gives the standard deviation.

A short description of this data set: protein stability index of a GFP-peptide fusion (GPS, HEK-293T) (PSI 1-6); higher = more stable. To be noted: c terminus: a fixed tail appended.
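Also: 24-mer peptide tiles fused after GFP, lentivirally expressed, FACS-sorted into six equal bins by GFP/DsRed ratio, decoded by Illumina sequencing, PSI is the read-weighted mean bin number.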

RGNRLKTTSWGLLSLGALVALCWQ [SCNN1D]: the protein stability index stood at 2.3 ± 0.26 (treatment: DMSO) and 2.16 ± 0.24 (treatment: MLN4924 1 uM, 8 h).
The matching figures for RGPVVPKHSTFGQSLTQRLHALKL [GNAS]: 2.4 ± 0.29 and 2.36 ± 0.28.
For RHLNDDDVTGSVKSERRNLLEDDS [VAMP4] the same measures were 5.28 ± 0.2 and 5.42 ± 0.19.
The matching figures for RHPPKVGDDSDLSEGFESDSSHDS [SMG5]: 5.46 ± 0.18 and 5.51 ± 0.21.
Regarding RHRSADVLGVADGVGGWRDYGVDP [PPTC7], the protein stability index runs as follows: (treatment: DMSO) 4.14 ± 0.39; (treatment: MLN4924 1 uM, 8 h) 4.07 ± 0.48.
Turning to RIDSQFLIGDTLLVAPVLEPGKQE [MYORG], the protein stability index runs as follows: (treatment: DMSO) 3.77 ± 0.18; (treatment: MLN4924 1 uM, 8 h) 3.81 ± 0.26.
Regarding RIFAHKIYLSTSSSKFYDLFLMDL [RHOBTB2], the protein stability index (treatment: DMSO) turned out to be 2.97 ± 0.31 and the protein stability index (treatment: MLN4924 1 uM, 8 h) amounted to 2.86 ± 0.66.
In the case of RIIPNFYPPLEGHVRQGVFSSLNH [INTS3], the protein stability index (treatment: DMSO) stood at 2.28 ± 0.025 and the protein stability index (treatment: MLN4924 1 uM, 8 h) worked out at 2.3 ± 0.16.
Consider RILDELTLCKADLEAQVESLKEEL [KRT36], for which the protein stability index was determined as 3.76 ± 0.35 (treatment: DMSO) and 3.68 ± 0.54 (treatment: MLN4924 1 uM, 8 h).
The matching figures for RKDMIAEKLAPSEITEELPSSQLM [ZNF396]: 4.98 ± 0.16 and 4.86 ± 0.27.
The matching figures for RKFYVHIKPAPARAPACSPEAAAA [FCHO1]: 2.66 ± 0.3 and 2.82 ± 0.35.
For the sequence RKISVNAKDEDQWTALHFAAQNGD [RIPK4], the protein stability index (treatment: DMSO) was determined as 4.19 ± 0.26 and the protein stability index (treatment: MLN4924 1 uM, 8 h) stood at 4.59 ± 0.53.
For the sequence RMAAPRAEALFDFTGNSKLELNFK [NCF4], the protein stability index runs as follows: (treatment: DMSO) 3.33 ± 0.2; (treatment: MLN4924 1 uM, 8 h) 3.46 ± 0.28.
The matching figures for RMRYLNGLDPEPLPLMDLCRRSVR [SPSB1]: 3.21 ± 0.27 and 3.36 ± 0.1.
As for RNGAVRRFGQTIQSFTLRGDHRSP [NET1], the protein stability index (treatment: DMSO) is 3.36 ± 0.31 and the protein stability index (treatment: MLN4924 1 uM, 8 h) came to 3.49 ± 0.13.
For RNIMNLIDIVAIIPYFITLGTELA [KCNA3], the protein stability index reads like this: (treatment: DMSO) 2.84 ± 0.4; (treatment: MLN4924 1 uM, 8 h) 2.97 ± 0.21.
For RNRAITARRQHLKSVMLQIAATEL [TNNI2], the protein stability index is, setting by setting: (treatment: DMSO) 2.4 ± 0.25; (treatment: MLN4924 1 uM, 8 h) 2.72 ± 0.33.
RPFDCPVCNKKFKMKHHLTEHMKT [ZBTB22]: the protein stability index reads like this: (treatment: DMSO) 2.77 ± 0.23; (treatment: MLN4924 1 uM, 8 h) 3.47 ± 0.53.
Consider RPGQAPIGNPPVGPIGGMMPPQPG [ZNF207], for which the protein stability index worked out at 4.14 ± 0.22 (treatment: DMSO) and 4.28 ± 0.38 (treatment: MLN4924 1 uM, 8 h).
Consider RPIGEFRSNADYQYQLLRCNVDLL [CNOT7], for which the protein stability index is, setting by setting: (treatment: DMSO) 2.5 ± 0.2; (treatment: MLN4924 1 uM, 8 h) 2.47 ± 0.16.
The matching figures for RPSEIKDYSPYFKTIEDLRNKIIA [KRT16]: 2.28 ± 0.18 and 2.41 ± 0.22.
The matching figures for RPSMASELMPSSRLWSLSYTKLPS [SLC25A39]: 2.99 ± 0.19 and 2.92 ± 0.26.
For RRAGAACTLRQKLIFSPCSDCEEE [WEE1] the same measures were 4.2 ± 0.25 and 4.39 ± 0.15.
RRENYGVPPRRATISSWRNDRMST [RBMY1A1]: the protein stability index reads like this: (treatment: DMSO) 3.31 ± 0.28; (treatment: MLN4924 1 uM, 8 h) 3.43 ± 0.068.
Take RRKGEMGLSAEDGVWAVIISHQQC [TRIM15]: the protein stability index (treatment: DMSO) amounted to 2.36 ± 0.49 and the protein stability index (treatment: MLN4924 1 uM, 8 h) was 2.16 ± 0.21.
For RRMFSSLFQFSNCSQGQQLATFSS [CCDC3], the protein stability index was determined as 2.31 ± 0.2 (treatment: DMSO) and 2.34 ± 0.98 (treatment: MLN4924 1 uM, 8 h).
The matching figures for RSGGHAPRVRELLLDALSPEQLVL [ESR2]: 2.82 ± 0.14 and 2.91 ± 0.34.
Regarding RTADEATNTGPAGSSASTSPAPLD [DYRK1B], the protein stability index was 5.5 ± 0.28 (treatment: DMSO) and 5.34 ± 0.21 (treatment: MLN4924 1 uM, 8 h).
The matching figures for RTDYSGRGELSARQMHLARFLRML [RAD51]: 2.18 ± 0.42 and 2.38 ± 0.26.
For RTGSLFKIWLVVPSLLELAWEKLL [KLHDC10] the same measures were 2.84 ± 0.27 and 2.78 ± 0.31.
Regarding RTHSVIKEETNHSEMAEDLCKIGS [IKZF1], the protein stability index was 4.9 ± 0.25 (treatment: DMSO) and 4.85 ± 0.46 (treatment: MLN4924 1 uM, 8 h).
The matching figures for RTPPKSPGDPSKDRAAKRLSLESE [TPPP]: 5.3 ± 0.14 and 4.99 ± 0.25.
For RVQAAAFGPGQTLLSSVHVLDLEA [ALKBH7] the same measures were 3.02 ± 0.42 and 3.3 ± 0.32.
For RVRSLETENRRLESKIREHLEKKG [KRT18] the same measures were 4.44 ± 0.26 and 4.99 ± 0.18.
Turning to RVWLKRDSGQYWPSVYHAMPSPCS [WDFY2], the protein stability index was 2.26 ± 0.27 (treatment: DMSO) and 2.33 ± 0.46 (treatment: MLN4924 1 uM, 8 h).
For RYGQLIEINSHSLFSKWFSESGKL [TRIP13] the same measures were 2.27 ± 0.49 and 2.49 ± 0.83.
With RYIHSMSLVHMDIKPSNIFISRTS [WEE1], the protein stability index worked out at 1.9 ± 0.47 (treatment: DMSO) and 2.46 ± 0.31 (treatment: MLN4924 1 uM, 8 h).
For RYNDFVVFQEMLLHKFPYRMVPAL [SNX8] the same measures were 2.51 ± 0.41 and 2.22 ± 0.27.
For RYNFTPDPDFKDLGALKPLPACEF [NETO1] the same measures were 2.87 ± 0.19 and 2.93 ± 0.33.
The matching figures for SAAPSNDQDGEYCPEVKLKTTGLE [SRPK2]: 5.28 ± 0.28 and 5.26 ± 0.26.
SAEELRKARSNSTLSKSEYMVIEE [KCNA3]: the protein stability index runs as follows: (treatment: DMSO) 4.87 ± 0.17; (treatment: MLN4924 1 uM, 8 h) 4.93 ± 0.16.
On to SALGPNVTKITLESFLAWKKRKRQ [ZC3H15], for which the protein stability index by setting is: (treatment: DMSO) 2.92 ± 0.14; (treatment: MLN4924 1 uM, 8 h) 3.14 ± 0.28.
On to SAVADKLDNSRSILKRRYYRQHCT [CTDNEP1], for which the protein stability index is, setting by setting: (treatment: DMSO) 3.24 ± 0.33; (treatment: MLN4924 1 uM, 8 h) 3.7 ± 0.49.
For SAVTSVRILQDEQYLMASDMAGKI [DCAF4] the same measures were 3.33 ± 0.18 and 3.29 ± 0.27.
For SCKLVRDKITGQSLGYGFVNYSDP [ELAVL3] the same measures were 2.4 ± 0.19 and 2.5 ± 0.37.
Consider SDEYKIRRERNNIAVRKSRDKAKM [CEBPB], for which the protein stability index is, setting by setting: (treatment: DMSO) 4.75 ± 0.27; (treatment: MLN4924 1 uM, 8 h) 5 ± 0.17.
The matching figures for SDGVYAIVATLLILDICEDNVPDP [TMEM175]: 2.86 ± 0.39 and 2.84 ± 0.51.
The matching figures for SDGWWRGSYNGQIGWFPSNYVLEE [NCK2]: 2.89 ± 0.35 and 2.73 ± 0.12.
In turn, SDSLLTGMAFFKMREMFFEDHIDD [CNOT7] showed a protein stability index (treatment: DMSO) of 2.58 ± 0.054 and a protein stability index (treatment: MLN4924 1 uM, 8 h) of 3.3 ± 0.48.
As to SEEKLALDNNASASGNATQTESGS [C10orf62], the protein stability index stood at 5.55 ± 0.15 (treatment: DMSO) and 5.6 ± 0.19 (treatment: MLN4924 1 uM, 8 h).
The matching figures for SENARLVLQIDNAKLAADDFRTKY [KRT36]: 4.03 ± 0.2 and 4 ± 0.24.
As for SESRGSSGRVKRERDREREPEAAS [USP39], the protein stability index is, setting by setting: (treatment: DMSO) 5.53 ± 0.24; (treatment: MLN4924 1 uM, 8 h) 5.59 ± 0.19.
For SFQLEISGFLKEMACPYSVLISGD [FAM98B] the same measures were 2.56 ± 1.3 and 2.11 ± 0.74.
Regarding SFQLFVEGYKDADYWLRRFEAEPL [PI4K2A], the protein stability index amounted to 1.92 ± 0.41 (treatment: DMSO) and 2.35 ± 0.25 (treatment: MLN4924 1 uM, 8 h).
The matching figures for SGACGAFVHGLEDEMYEVRIAAVE [INTS4]: 2.71 ± 0.46 and 2.73 ± 0.5.
For SGAGRRKNATRETTSTLKAWLNEH [IRX6], the protein stability index runs as follows: (treatment: DMSO) 3.55 ± 0.28; (treatment: MLN4924 1 uM, 8 h) 3.58 ± 0.23.
For SGKVSSSSSSLGNKLQTLSPSHKG [ZC2HC1A] the same measures were 4.31 ± 0.14 and 4.26 ± 0.091.
For SGLIYLTNHIAPHARNGLSLKEEH [IKZF1] the same measures were 2.58 ± 0.37 and 2.71 ± 0.19.
Consider SHLSDTGISALVEIPKNCVVAAVG [WDR41], for which the protein stability index is 3.09 ± 0.31 (treatment: DMSO) and 3.22 ± 0.25 (treatment: MLN4924 1 uM, 8 h).
In the case of SIEVGGSVNFDGETIEGAPPLWAA [FEM1C], the protein stability index is 3.92 ± 0.28 (treatment: DMSO) and 4.12 ± 0.34 (treatment: MLN4924 1 uM, 8 h).
With SILRELDTSMDGTEPPQNPVTPLG [SERTAD3], the protein stability index is, setting by setting: (treatment: DMSO) 4.35 ± 0.13; (treatment: MLN4924 1 uM, 8 h) 4.38 ± 0.18.
For SIPLTPGDTPIRKKEELLFDDGDD [FBF1] the same measures were 5.51 ± 0.54 and 5.62 ± 0.17.
For SKAVFLWNMDKYTMIRKLEGHHHD [WSB1] the same measures were 2.24 ± 0.16 and 2.24 ± 0.33.
The matching figures for SKCLVDDGTGRMPTLKKCEDVARP [GALNT9]: 4.57 ± 0.16 and 4.54 ± 0.21.
On to SKDLYLISQMDSDQFIPIWTVANM [LARP4], for which the protein stability index by setting is: (treatment: DMSO) 2.51 ± 0.6; (treatment: MLN4924 1 uM, 8 h) 1.92 ± 0.36.
Turning to SKDWEEVVVESMEQDRIPEVHVPP [MIA2], the protein stability index by setting is: (treatment: DMSO) 5.09 ± 0.25; (treatment: MLN4924 1 uM, 8 h) 4.87 ± 0.26.
For SKEDKDLDSSEGSSQEDEDLGLSE [SPANXN3] the same measures were 5.57 ± 0.33 and 5.62 ± 0.28.
For SKEKDTQNQNITLDCEGTTNKMKS [KMT2E] the same measures were 5.29 ± 0.058 and 5.28 ± 0.45.
In the case of SKGWGRNYASIIRRDCMWSGFSAR [MYCL], the protein stability index (treatment: DMSO) stood at 2.35 ± 0.39 and the protein stability index (treatment: MLN4924 1 uM, 8 h) stood at 2.38 ± 0.31.
For the sequence SKQRKDFEGMAFLETEQGKPFVSV [GMCL1], the protein stability index (treatment: DMSO) was found to be 3.42 ± 0.14 and the protein stability index (treatment: MLN4924 1 uM, 8 h) came to 3.27 ± 0.16.
On to SKSLCHDEIENLLDSDHRELIGDY [CDC25B], for which the protein stability index was 4.13 ± 0.26 (treatment: DMSO) and 4.31 ± 0.27 (treatment: MLN4924 1 uM, 8 h).
For SLCYLQLTRQLVSCSSDGGIAVWN [WDFY1] the same measures were 2.87 ± 0.57 and 2.81 ± 0.46.
